How the values were obtained:
[1] = biological target: T1, recombinant human CEACAM-1/CD66a protein Bulk (R&D systems; Cat. No. 2244-CM) (human, UniProt P13688 35-428); experiment: ELISA, coated antigen, anti-human IgG Fab-HRP
T1 construct: Same catalogue number as HCCM1, coated as a separate antigen ('bulk'); also called HCCM1 (bulk)
T1 sequence (looked up): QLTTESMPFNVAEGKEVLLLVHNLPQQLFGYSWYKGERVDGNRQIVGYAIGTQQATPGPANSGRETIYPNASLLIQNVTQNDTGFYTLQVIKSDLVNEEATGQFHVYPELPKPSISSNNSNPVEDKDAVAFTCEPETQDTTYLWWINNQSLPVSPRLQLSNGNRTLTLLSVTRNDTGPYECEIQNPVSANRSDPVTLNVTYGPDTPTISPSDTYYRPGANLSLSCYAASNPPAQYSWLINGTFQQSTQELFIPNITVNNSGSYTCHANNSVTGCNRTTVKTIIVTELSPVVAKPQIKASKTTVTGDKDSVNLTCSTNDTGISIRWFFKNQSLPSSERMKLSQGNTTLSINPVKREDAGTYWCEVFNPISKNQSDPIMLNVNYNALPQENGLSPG

[2] = biological target: T2, recombinant human CEACAM-1/CD66a protein (R&D systems; Cat. No. 2244-CM) (human, UniProt P13688 35-428); experiment: ELISA on coated recombinant CEACAM-1/CD66a (0.25 µg/ml), HRP anti-human IgG, OD450
T2 construct: Bought protein; captured on anti-His (His1K) biosensors in the Octet assay, so it carries a His tag; also called HCCM1; recombinant CEACAM-1/CD66a protein
T2 sequence (looked up): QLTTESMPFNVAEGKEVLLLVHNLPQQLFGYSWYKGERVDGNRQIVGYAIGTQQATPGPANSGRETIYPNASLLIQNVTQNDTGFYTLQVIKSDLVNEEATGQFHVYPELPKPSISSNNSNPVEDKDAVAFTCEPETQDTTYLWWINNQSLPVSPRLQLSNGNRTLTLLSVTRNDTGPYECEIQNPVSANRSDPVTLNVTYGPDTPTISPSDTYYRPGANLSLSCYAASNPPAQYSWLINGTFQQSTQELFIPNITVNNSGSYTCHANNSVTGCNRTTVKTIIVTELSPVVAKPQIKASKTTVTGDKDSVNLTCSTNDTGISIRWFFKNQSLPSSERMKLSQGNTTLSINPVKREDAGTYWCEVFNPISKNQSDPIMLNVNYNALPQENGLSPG
Experimental: Also, 2.5 μg of the recombinant CEACAM-1/CD66a protein (R&D systems; Cat. No. 2244-CM) was dissolved in 10 ml of PBS, and dispensed into 96-well plate (Nunc; Cat. No. 467679) at 100 μl/well and incubated overnight at 4° C. Thereafter, 300 μl of 1% (v/v) bovine serum albumin was added to each well, which was incubated at 37° C. for 1 hour.
Each of the diluted antibodies was subjected to serial dilutions in PBS at a 1:1 volume ratio for 6 times. Each of the antibodies diluted to 7 concentrations was dispensed into each well at 100 μl/well, which was incubated at 37° C. for 1 hour. Then, each well was washed 3 times with a washing buffer prepared by diluting 10 μl of Tween 20 (Sigma-Aldrich; Cat. No. P9146) in 990 μl of PBS. Thereafter, 2 μl of human IgG conjugated with HRP was diluted in 10 ml of PBS, which was then dispensed into each well at 100 μl/well and incubated for 1 hour.

[3] = biological target: T2, recombinant human CEACAM-1/CD66a …; experiment: Octet QKe biolayer interferometry, anti-His (HIS1K) biosensors, antibody 6.25-400 nM
Experimental: The last well in each row was with a sample at the antibody concentration of 0 nM. Recombinant human CEACAM1 protein (R&D Systems; Cat. No. 2244-CM) was diluted to obtain a concentration of […], and dispensed into each well of another column at 200 μl/well.
As for the washing buffer, neutralization buffer and baseline buffer, Reagent/Kinetics buffer (10×) (Fortebio; Cat. No. 18-1092) were 1:10 diluted and dispensed into each well of a column in a row at 200 μl/well, and the regeneration buffer was dispensed into each well at 200 μl/well. Greiner 96-well plate was separately prepared, Reagent/Kinetics buffer (1×) was dispensed into each well of the number of biosensors to be used in a row at 200 μl/well, and Biosensors/Anti-His (His1K) (Fortebio; Cat. No. 18-5120) cassette was installed.

[4] = biological target: T3, human CEACAM1 expressed on the cell surface (CEACAM1-Jurkat T cells); HEK293 cells transfected with human … (human, UniProt P13688 35-526); experiment: flow cytometry on CEACAM1-Jurkat T cells; maximal MFI told of the 'other clones' as a group
T3 construct: whole, on cells; also called CCM1
T3 sequence (looked up): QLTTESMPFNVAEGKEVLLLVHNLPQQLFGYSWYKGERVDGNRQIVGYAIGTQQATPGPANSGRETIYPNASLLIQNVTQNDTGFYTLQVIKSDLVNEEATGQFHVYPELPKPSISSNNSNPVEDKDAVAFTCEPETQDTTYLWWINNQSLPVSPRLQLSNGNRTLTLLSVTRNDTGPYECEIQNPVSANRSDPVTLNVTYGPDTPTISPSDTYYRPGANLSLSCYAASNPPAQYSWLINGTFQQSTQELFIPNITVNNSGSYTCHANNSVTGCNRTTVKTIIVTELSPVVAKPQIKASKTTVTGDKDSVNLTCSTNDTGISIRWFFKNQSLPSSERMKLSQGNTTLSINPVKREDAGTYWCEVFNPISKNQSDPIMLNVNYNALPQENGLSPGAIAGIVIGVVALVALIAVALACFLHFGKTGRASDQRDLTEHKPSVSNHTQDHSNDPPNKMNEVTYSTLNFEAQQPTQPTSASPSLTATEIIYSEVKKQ
Experimental: The CEACAM1-Jurkat T cells prepared above were treated with Fc block solution and incubated for 15 minutes. […] Herein, it is noted that the cell numbers were adjusted to 1×10⁵. The cells incubated with the antibodies were repeatedly subjected to the washing procedure of resuspending the cells in a FACS buffer and centrifuging the solution at 1,500 rpm.
PE-conjugated goat anti-human F(ab)₂; (Sigma; Cat. No. P8047)) was diluted in the FACS buffer at a volume ratio of 1:200, and then added to the cells at 100 μl/well. Cells were resuspended well and incubated at 4° C. for 30 minutes in a dark condition.
The cells incubated with the fixation buffer were repeatedly subjected to the washing procedure of resuspending the cells in a FACS buffer, centrifuging the solution at 1,500 rpm, and discarding the supernatant. The washed cells were resuspended in 200 μl of a FACS buffer, and the mean fluorescence intensities (MFIs) of the PE-labeled cells were monitored by a FACS LSR-Fortessa. All FACS analyses were conducted using the FlowJo software.

Binder | binding result [1] | binding result [2] | EC50 (read off the curve) [2] [mg/L] | Kd [3] [nM] | koff [3] [s⁻¹] | kon [3] [M⁻¹ s⁻¹] | MFI [4]
C18 (antibody, human IgG4 S228P, lambda, V domains shown) VH: EVQLLESGGGLVQPGGSLRLSCAASGFTFSNYDMSWVRQAPGKGLEWVSGISHSSGSKYYADSVKGRFTISRDNSKNTLYLQMNSLRAEDTAVYYCARDPLPCLIPKCSYYYAMDVWGQGTLVTVSS VL: QSVLTQPPSAPGTPGQRVTISCSGSSSNIGSNAVTWYQQLPGTAPKLLIYADSHRPSGVPDRFSGSKSGTSASLAISGLRSEDEADYYCGSWDDSLNAYVFGGGTKLTVLG | binds |  |  |  |  |  | 
C19 (antibody, human IgG4 S228P, lambda, V domains shown) VH: EVQLLESGGGLVQPGGSLRLSCAASGFTFSGYAMSWVRQAPGKGLEWVSGIYHDGGSTYYADSVKGRFTISRDNSKNTLYLQMNSLRAEDTAVYYCARVTVLCTTYGCSSYDGMDVWGQGTLVTVSS VL: not shown | binds |  |  |  |  |  | 
C22 (antibody, human IgG4 S228P, lambda, V domains shown) VH: EVQLLESGGGLVQPGGSLRLSCAASGFTFSDYDMSWVRQAPGKGLEWVSMIYSGSSSKYYADSVKGRFTISRDNSKNTLYLQMNSLRAEDTAVYYCAKAPLPFYFRPKSYYYAMDVWGQGTLVTVSS VL: QSVLTQPPSASGTPGQRVTISCSGSSSNIGSNNVTWYQQLPGTAPKLLIYANSHRPSGVPDRFSGSKSGTSASLAISGLRSEDEADYYCGSWDSSLNAYVFGGGTKLTVLG | binds |  |  |  |  |  | 
C17 (antibody, human IgG4 S228P, lambda, V domains shown) VH: EVQLLESGGGLVQPGGSLRLSCAASGFTFSDYSMSWVRQAPGKGLEWVSVIYPDDGNTYYADSVKGRFTISRDNSKNTLYLQMNSLRAEDTAVYYCARGSIWWLSLIPSSYNAMDVWGQGTLVAVSS VL: QSVLTQPPSASGTPGQRVTISCSGSSSNIGNNAVNWYQQLPGTAPKLLIYANSHRPSGVPDRFSGSKSGTSASLAISGLRSEDEADYYCGAWDASLNGYVFGGGTKLTVLG | binds | binds |  |  |  |  | 
C15 (antibody, human IgG4 S228P, lambda, V domains shown) VH: EVQLLESGGGLVQPGGSLRLSCAASGFTFSSYSMSWVRQAPGKGLEWVSSISPNGGNKYYADSVKGRFTISRDNSKNTLYLQMNSLGAEDTAVYYCAKDPYNIYQPLFDYWGQGTLVTVSS VL: QSVLTQPLSASGTPGQRVTISCSGSSSNIGNNYVNWYQQLPGTAPKLLIYANSNRPSGVPDRFSGSKSGTSASLAISGLRSEEEADYYCGTWDASLSAYVFGGGTKLTVLG | binds | binds |  |  |  |  | 
C25 (antibody, human IgG4 S228P, lambda, V domains shown, Made in ExpiHEK293F cells, protein A purified. huIgG4 is the isotype control and anti-huIgG4 the detection reagent; the isotype is not otherwise stated; also called anti-CEACAM1 antibody C25) VH: EVQLLESGGGLVQPGGSLRLSCAASGFTFSNYAMSWVRQAPGKGLEWVSVISHGGGSIYYADSVKGRLTISRDNSKNTLYLQMNSLRAEDTAVYYCARDPTKGYAPTFDYWGQGTLVTVSS VL: QSVLTQPPSASGTPGQRVTISCSGSSSNIGNNYVSWYQQLPGTAPKLLIYADSKRPSGVPDRFSGSKSGTSASLAISGLRSEDEADYYCGAWDASLNGYVFGGGTKLTVLG |  |  | ~0.2 | 34.9 | 0.000505 | 18200 | 
4R26 (antibody, human IgG4 S228P, lambda, V domains shown, also called C25-derived clone 4R26) VH: EVQLLESGGGLVQPGGSLRLSCAASGFTFSNYAMSWVRQAPGKGLEWVSVISHGGGSIYYADSVKGRLTISRDNSKNTLYLQMNSLRAEDTAVYYCARDPTKGYAPTFDYWGQGTLVTVSS VL: QSVLTQPPSASGTPGQRVTISCSGSSSNIGNNYVSWYQQLPGTAPKLLIYADSKRLSGVPDRFSGSKSGTSASLAISGLRSEDEADYYCGAWDGRLNGYVFGGGTKLTVLG |  |  |  | 1.82 | 0.000266 | 133000 | 8000
C26 (antibody, human IgG4 S228P, lambda, V domains shown) VH: EVQLLESGGGLVQPGGSLRLSCAASGFTFSGYDMSWVRQAPGKGLEWVSWISYGGGSIYYADSVKGRFTISRDNSKNTLYLQMNSLRAEDTAVYYCAKDRLPQKAVRHSYANGMDVWGQGTLVTVSS VL: QSVLTQPPSASGTPGQRVTISCSGSSSNIGNNYVTWYQQLPGTAPKLLIYADSHRPSGVPDRFSGSKSGTSASLAISGLRSEDEADYYCGAWDYSLSGYVFGGGTKLTVLG |  |  | ~0.3 |  |  |  | 
4R9 (antibody, human IgG4 S228P, lambda, V domains shown, also called C25-derived clone 4R9) VH: EVQLLESGGGLVQPGGSLRLSCAASGFTFSNYAMSWVRQAPGKGLEWVSVISHGGGSIYYADSVKGRLTISRDNSKNTLYLQMNSLRAEDTAVYYCARDPTKGYAPTFDYWGQGTLVTVSS VL: QSVLTQPPSASGTPGQRVTISCSGSSSNIGNNYVSWYQQLPGTAPKLLIYADSRRPSGVPDRFSGSKSGTSASLAISGLRSEDEADYYCGAWDLSLNGYVFGGGTKLTVLG |  |  |  | 3.39 | 0.000567 | 163000 | 8000
4R9_H2-2 (antibody, human IgG4 S228P, lambda, V domains shown, also called C25-derived clone 4R9_H2-2) VH: EVQLLESGGGLVQPGGSLRLSCAASGFTFSNYAMSWVRQAPGKGLEWVSVISHGGGSIYYADSVKGRLTISRDNSKNTLYLQMNSLRAEDTAVYYCARDPTKGYAPLFDYWGQGTLVTVSS VL: QSVLTQPPSASGTPGQRVTISCSGSSSNIGNNYVSWYQQLPGTAPKLLIYADSRRPSGVPDRFSGSKSGTSASLAISGLRSEDEADYYCGAWDLSLNGYVFGGGTKLTVLG |  |  |  | 3.54 | 0.000627 | 169000 | 8000
4R9_H4-n20 (antibody, human IgG4 S228P, lambda, V domains shown, also called C25-derived clone 4R9_H4-n20) VH: EVQLLESGGGLVQPGGSLRLSCAASGFNFSNYAMSWVRQAPGKGLEWVSVISHGGGSIYYADSVKGRLTISRDNSKNTLYLQMNSLRAEDTAVYYCARDPTKGYAPTFDYWGQGTLVTVSS VL: QSVLTQPPSASGTPGQRVTISCSGSSSNIGNNYVSWYQQLPGTAPKLLIYADSRRPSGVPDRFSGSKSGTSASLAISGLRSEDEADYYCGAWDLSLNGYVFGGGTKLTVLG |  |  |  | 39 | 0.000333 | 26100 | 

From US20200109196A1 (MOGAM INSTITUTE FOR BIOMEDICAL RESEARCH, published 2020)
